Data: IntAct's records for PubMed 21169485

B1: Lipopolysaccharide export system protein LptC (Escherichia coli (strain K12)), P0ADV9 (parent)
chain: MSKARRWVIIVLSLAVLVMIGINMAEKDDTAQVVVNNNDPTYKSEHTDTLVYNPEGALSYRLIAQHVEYYSDQAVSWFTQPVLTTFDKDKIPTWSVKADKAKLTNDRMLYLYGHVEVNALVPDSQLRRITTDNAQINLVTQDVTSEDLVTLYGTTFNSSGLKMRGNLRSKNAELIEKVRTSYEIQNKQTQP
partner: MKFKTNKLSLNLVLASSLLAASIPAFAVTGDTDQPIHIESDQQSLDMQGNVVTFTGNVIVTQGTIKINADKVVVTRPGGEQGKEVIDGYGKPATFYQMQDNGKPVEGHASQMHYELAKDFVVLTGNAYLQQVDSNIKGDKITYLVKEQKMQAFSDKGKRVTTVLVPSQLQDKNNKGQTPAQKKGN

Variants of: B1
Settings: with lpta_ecoli lptA

Variant	effect of a mutation on the interaction
MSKARRWVIIVLSLAVLVMIGINMAEKDDTAQVVVNNNDPTYKSEHTDTLVYNPEGALSYRLIAQHVEYYSDQAVSWFTQPVLTTFDKDKIPTWSVKADKAKLTNDRMLYLYGHVEVNALVPDSQLRRITTDNAQINLVTQDVTSEDLVTLYRTTFNSSGLKMRGNLRSKNAELIEKVRTSYEIQNKQTQP [G153R]	disrupting interaction
